Assay results reported in patent US4774321A, “DP100 EGF and insulin-binding protein from Drosophila cells” (Massachusetts Institute of Technology, priority 1986, dated 1988).
Read-outs that look alike come from different tables or passages of the source. Values belong to the substance of their own block, whether it stands above or below them.

Columns and labels:
dp100 [1] = molecular target: T1, dp100 (Drosophila melanogaster, UniProt P22817); experiment: Affinity labelling of anti-EGF receptor immunoprecipitates (dp100) with 125I-labelled growth factors; assay type: binding; conditions: for affinity labelling (crosslinking) of dp100 by 125I-labelled ligand: disuccinimidyl suberate crosslinking, immunoprecipitates
T1 construct: detergent-solubilized membranes from Drosophila-cultured cell lines are immunoprecipitated with anti-EGF receptor antiserum; endogenous in cells; host or cells: Drosophila Schneider L2 and Kc cells (solubilized membrane or cytoplasmic protein, immunoprecipitated)
T1 sequence (P22817 1-990): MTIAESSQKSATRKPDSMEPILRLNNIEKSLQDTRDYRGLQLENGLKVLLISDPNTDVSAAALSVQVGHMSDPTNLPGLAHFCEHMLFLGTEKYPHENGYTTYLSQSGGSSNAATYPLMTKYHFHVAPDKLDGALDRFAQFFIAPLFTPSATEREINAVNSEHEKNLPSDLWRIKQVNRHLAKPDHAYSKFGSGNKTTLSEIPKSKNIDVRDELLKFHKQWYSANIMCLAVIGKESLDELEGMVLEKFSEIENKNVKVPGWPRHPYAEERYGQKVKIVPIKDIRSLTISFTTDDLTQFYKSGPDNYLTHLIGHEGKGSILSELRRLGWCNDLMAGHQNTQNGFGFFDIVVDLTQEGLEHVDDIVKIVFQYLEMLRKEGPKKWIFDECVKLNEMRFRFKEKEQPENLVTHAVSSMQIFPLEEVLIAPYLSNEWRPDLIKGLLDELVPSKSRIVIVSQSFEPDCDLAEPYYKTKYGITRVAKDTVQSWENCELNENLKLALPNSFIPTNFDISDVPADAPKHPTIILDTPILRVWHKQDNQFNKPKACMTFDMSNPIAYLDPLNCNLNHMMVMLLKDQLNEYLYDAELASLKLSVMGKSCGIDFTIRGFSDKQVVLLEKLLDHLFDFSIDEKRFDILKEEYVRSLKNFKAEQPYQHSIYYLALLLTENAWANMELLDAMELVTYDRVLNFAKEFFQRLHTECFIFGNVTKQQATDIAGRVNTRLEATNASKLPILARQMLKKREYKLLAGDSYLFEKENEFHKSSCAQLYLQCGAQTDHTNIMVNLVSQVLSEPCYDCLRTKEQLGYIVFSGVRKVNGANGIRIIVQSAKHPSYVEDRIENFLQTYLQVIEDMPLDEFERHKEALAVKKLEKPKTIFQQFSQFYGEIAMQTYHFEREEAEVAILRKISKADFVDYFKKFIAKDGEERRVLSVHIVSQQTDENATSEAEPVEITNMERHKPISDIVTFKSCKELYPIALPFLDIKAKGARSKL
Method: (§1) Affinity Labeling of Immunoprecipitates: The dp100 protein is found in the membranes and cytoplasm of the Drosophila cells. Membrane protein is solubilized in 1 to 2% Triton X-100, 10% glycerol, 50 mM Hepes, pH 7.0, for 60 min at 4° C. Typically, 500 microgram of Drosophila membrane protein or 100 microgram of Swiss 3T3 membrane protein are used per sample. Unsolubilized material is removed by centrifugation at 12,000 x g for 10 min. The solublized membrane protein or cytoplasmic protein is diluted 1:2 and precleared by incubation with protein A-Sepharose beads (Pharmacia Fine Chemical Co., Piscataway, NJ). The cleared supernatants are treated overnight with anti-EGF receptor antiserum (1:10 dilution), anti-insulin receptor antiserum (1:50), or rabbit preimmune serum (1:10), and the product precipitated with protein A-Sepharose beads. The immunopellets are washed three times with 50 mM Hepes, pH 7.0, 50 mM NaCl, 10% glycerol, 0.1% Triton X-100 and resuspended in 25 mM Hepes, 50 mM NaCl, 0.1% Triton X-100, 1 mg of bovine serum albumin per ml. 125I-EGF (35 nM) or 125I-insulin (20 nM) is added, and the samples incubated 60 min at 15° C. Binding specificity is tested by the simultaneous addition of a 1000-fold excess of unlabeled ligand (30 microM) and labeled ligand. Bound growth factor is crosslinked to the immunoprecipitates by addition of disuccinimidyl suberate to 0.4 mM and incubation for 15 min at 0° C. The samples are then centrifuged and the supernatant removed. The pellets are resuspended in sample buffer (33 mM Tris.HCl, pH 6.5, 2% NaDodS04, 10% glycerol, 0.1% bromophenol blue, 2% 2-mercaptoethanol) and boiled. The protein A-Sepharose beads are removed by centrifugation, and the supernatants run on 6.5% polyacrylamide/NaDodS04 gels.
To increase sensitivity of detection, detergent-solubilized membranes from Drosophila-cultured cell lines are immunoprecipitated with anti-EGF receptor antiserum, anti-insulin receptor antiserum, or rabbit preimmune serum prior to affinity labeling. Radiolabeled growth factors are added to the immune precipitates in the presence or absence of excess growth factor, allowed to bind at 15° C., and then crosslinked with disuccinimidyl suberate. Samples are analyzed by separation on NaDodSO4 /PAGE and subsequent autoradiography. […] However, the anti-EGF receptor antiserum does specifically immunoprecipitate dp100. Similar results are observed when membrane proteins from two different Drosophila cell lines, Schneider L2 and Kc, are analyzed.
Controls with preimmune serum fail to immunoprecipitate dp100 or any other growth factor binding protein.

dp100 [2] = molecular target: T1, dp100; experiment: Competitive affinity labelling of immunoprecipitated dp100 with 125I-insulin as label; assay type: binding; conditions: for Kd: competition with 125I-insulin
Method: as §1, with “The cleared supernatants are treated overnight with anti-EGF receptor antiserum (1:10 dilution), anti-insulin receptor antiserum (1:50), or rabbit preimmune serum (1:10), and the product precipitated with protein A-Sepharose beads.” left out, “125I-EGF (35 nM) or 125I-insulin (20 nM) is added, and the samples incubated 60 min at 15° C.” left out
To ensure linearity, several exposures are taken. Dissociation constants are determined by statistical analysis.
The dissociation constants ranged from 10^-6 M to 10^-9 M.

170 kDa EGF receptor = molecular target: T2, 170 kDa EGF receptor (Mus musculus, UniProt Q01279); experiment: Affinity labelling of EGF receptor immunoprecipitated from murine 3T3 fibroblast membranes; assay type: binding
T2 construct: 170 kDa EGF receptor immunoprecipitated from murine 3T3 fibroblast membranes; endogenous in cells; host or cells: Swiss 3T3 mouse fibroblasts (solubilized membranes, immunoprecipitated)
Method: as §1, with “Binding specificity is tested by the simultaneous addition of a 1000-fold excess of unlabeled ligand (30 microM) and labeled ligand. Bound growth factor is crosslinked to the immunoprecipitates by addition of disuccinimidyl suberate to 0.4 mM and incubation for 15 min at 0° C. The samples are then centrifuged and the supernatant removed. The pellets are resuspended in sample buffer (33 mM Tris.HCl, pH 6.5, 2% NaDodS04, 10% glycerol, 0.1% bromophenol blue, 2% 2-mercaptoethanol) and boiled. The protein A-Sepharose beads are removed by centrifugation, and the supernatants run on 6.5% polyacrylamide/NaDodS04 gels.” left out
The dp100 has a higher affinity for insulln than EGF. First, in crosslinking experiments with membranes, binding of ^125 I-insulin but not ^125 I-EGF is detected.

[3] = molecular target: T3, EGF receptor in human epithelial carcinoma A431 cells (Homo sapiens, UniProt P00533); experiment: Competition with 125I-EGF for binding to the EGF receptor in A431 cells; conditions: 4° C., 3 hr, FIG. 2
T3 construct: endogenous in cells; host or cells: A431 cells (American Type Culture Collection)
Method: FIG. 2 is a graph of the competitive binding of murine EGF and synthetic human TGF-alpha to the EGF receptor in A431 cells. ^125 I-EGF (10^5 cpm) was incubated with A431 cells (2×10^4 cells/well) at 4° C. for 3 hr in the presence of different M concentrations of unlabelled EGF ( ) or TGF-alpha ( ). The percent of binding as compared to the control is the mean of duplicate determinations with the error less than 10%.
Growth factor binding to A431 cells: A431 cells are grown in monolayer and ^125 I-labelled EGF bound to the cells as described by B. Friedman et al in Proc. Natl. Acad. Sci. U.S.A. 81, 3034-3039 (1984).
To ensure that the difference in the binding affinities of EGF and TGF-alpha for dp100 reflects a property of the protein rather than the particular growth factor preparations, the ability of unlabelled EGF and TGF-alpha to compete with ^125 I-labelled EGF for binding to the EGF receptor in human epithelial carcinoma A431 cells was determined.

dp100 [4] = molecular target: T1, dp100; experiment: Affinity labelling of intact Drosophila membranes; assay type: binding
[5] = densitometric scanning of autoradiograms, read-out: Dissociation constants for ligand binding to dp100, KD
[6] = read-out: dissociation constant (Kd) for binding to dp100

affinity labelling (crosslinking) of dp100 by 125I-labelled ligand (dp100 [1]): can be affinity labelled
blocking of 125I-insulin and 125I-EGF binding to dp100 by excess unlabeled ligand (dp100 [1]): can block binding
Kd (dp100 [2]; [5]): 1300 nM
blocking of 125I-EGF affinity labeling of the murine EGF receptor by excess ligand (170 kDa EGF receptor; excess unlabeled ligand): can be blocked by excess EGF
crosslinking of 125I-ligand to the 170 kDa EGF receptor (170 kDa EGF receptor; immunoprecipitated by anti-EGF receptor antiserum): can be crosslinked
affinity for the mammalian EGF receptor, EGF versus TGF-alpha preparations [3]: no significant difference
affinity labelling by 125I-ligand after incubation with intact Drosophila membranes (dp100 [4]): is not detected
Substance: EGF: murine epidermal growth factor, receptor grade and HPLC purified
affinity for dp100 compared with recombinant TGF-alpha (dp100 [2]; FIG. 3): within the same order of magnitude as the recombinant form

Substance: glucagon: glucagon (Sigma Chemical Co.)
Kd (dp100 [2]; [6]): > 1000 nM

affinity labelling (crosslinking) of dp100 by 125I-labelled ligand (dp100 [1]): can be affinity labelled
affinity for dp100 relative to that for EGF (dp100 [2]): three orders of magnitude higher
affinity for dp100 relative to human recombinant TGF-alpha (dp100 [2]; FIG. 3): 100-1000 times
Kd (dp100 [2]; [5]): 5 nM
Kd (dp100 [2]; [6]): 5 nM
affinity for the mammalian EGF receptor, EGF versus TGF-alpha preparations [3]: no significant difference
Substance: TGF-alpha: Synthetic human transforming growth factor-alpha, synthesized chemically (J. Tam, Rockefeller University)

Substance: INSULIN: porcine insulin from Biomedical Technologies Inc.
inhibition of 125I-insulin and 125I-EGF binding to dp100, comparison of unlabeled ligands (dp100 [1]; competition with unlabeled ligand): more effective than EGF
affinity labelling (crosslinking) of dp100 by 125I-labelled ligand (dp100 [1]): can be affinity labelled
blocking of 125I-insulin and 125I-EGF binding to dp100 by excess unlabeled ligand (dp100 [1]): can block binding
affinity labelling by 125I-ligand after incubation with intact Drosophila membranes (dp100 [4]): can be detected

Substance: PDGF
affinity labelling (crosslinking) of dp100 by 125I-labelled ligand (dp100 [1]): neither ^125 I-TGF-beta nor ^125 I-PDGF, two structurally unrelated growth factors, can be crosslinked

Substance: native TGF-alpha: native transforming growth factor-alpha
affinity for dp100 compared with recombinant TGF-alpha (dp100 [2]; FIG. 3): within the same order of magnitude as the recombinant form

Substance: TGF-beta: 125I-TGF-beta, structurally unrelated growth factor
affinity labelling (crosslinking) of dp100 by 125I-labelled ligand (dp100 [1]): neither ^125 I-TGF-beta nor ^125 I-PDGF, two structurally unrelated growth factors, can be crosslinked

Substance: IGF-I: insulin-like growth factor-I (Amgen)
affinity labelling (crosslinking) of dp100 by 125I-labelled ligand (dp100 [1]): can be affinity labelled
Kd (dp100 [2]; [5]): 500 nM

Kd (dp100 [2]; [6]): > 1000 nM
Substance: NGF: Nerve growth factor
